Numbering of substitutions follows the chain as printed. In names and notes the source's numbering stands.
T1: VP16-RXR (herpes simplex VP16 trans-activation domain followed by the complete coding sequence of human RXRα) (herpes simplex; human, UniProt P19793 1-462)
T1 construct: Two-hybrid prey, expressed in JEG3 cells; also called pCMX-VP16-RXR
T1 sequence: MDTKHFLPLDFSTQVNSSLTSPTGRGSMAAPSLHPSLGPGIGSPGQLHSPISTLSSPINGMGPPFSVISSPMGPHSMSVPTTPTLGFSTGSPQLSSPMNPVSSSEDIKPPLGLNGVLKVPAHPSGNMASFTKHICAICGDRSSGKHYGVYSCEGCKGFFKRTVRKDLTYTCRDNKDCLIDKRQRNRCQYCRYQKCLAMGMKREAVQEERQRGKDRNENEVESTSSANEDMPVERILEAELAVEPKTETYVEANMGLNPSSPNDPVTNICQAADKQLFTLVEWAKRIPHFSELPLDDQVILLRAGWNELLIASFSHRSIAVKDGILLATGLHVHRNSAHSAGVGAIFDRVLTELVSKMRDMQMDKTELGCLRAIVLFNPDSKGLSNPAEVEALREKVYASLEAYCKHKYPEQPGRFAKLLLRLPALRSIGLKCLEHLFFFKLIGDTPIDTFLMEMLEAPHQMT

B1: KLL(554-556)AAA: mouse Nurr1 I-box mutant, residues Lys554-Leu555-Leu556 substituted by three alanines (protein)
chain: MPCVQAQYGSSPQGASPASQSYSYHSSGEYSSDFLTPEFVKFSMDLTNTEITATTSLPSFSTFMDNYSTGYDVKPPCLYQMPLSGQQSSIKVEDIQMHNYQQHSHLPPQSEEMMPHSGSVYYKPSSPPTPSTPSFQVQHSPMWDDPGSLHNFHQNYVATTHMIEQRKTPVSRLSLFSFKQSPPGTPVSSCQMRFDGPLHVPMNPEPAGSHHVVDGQTFAVPNPIRKPASMGFPGLQIGHASQLLDTQVPSPPSRGSPSNEGLCAVCGDNAACQHYGVRTCEGCKGFFKRTVQKNAKYVCLANKNCPVDKRRRNRCQYCRFQKCLAVGMVKEVVRTDSLKGRRGRLPSKPKSPQDPSPPSPPVSLISALVRAHVDSNPAMTSLDYSRFQANPDYQMSGDDTQHIQQFYDLLTGSMEIIRGWAEKIPGFADLPKADQDLLFESAFLELFVLRLAYRSNPVEGKLIFCNGVVLHRLQCVRGFGEWIDSIVEFSSNLQNMNIDISAFSCIAALAMVTERHGLKEPKRVEELQNKIVNCLKDHVTFNNGGLNRPNYLSAAAGKLPELRTLCTQGLQRIFYLKLEDLVPPPAIIDKLFLDTLPF
B2: P560A: mouse Nurr1 I-box mutant, Pro560 substituted by alanine (protein)
chain: B1 chain with A554K, A555L, A556L, P560A
B3: GKL(557-559)AAA: mouse Nurr1 I-box mutant, residues 557-559 (GKL) substituted by three alanines (protein)
chain: B1 chain with A554K, A555L, A556L, G557A, K558A, L559A
B4: PEL(560-562.)AAA: mouse Nurr1 I-box mutant, residues 560-562 (PEL) substituted by three alanines (protein)
chain: B1 chain with A554K, A555L, A556L, P560A, E561A, L562A
B5: K558A: mouse Nurr1 I-box mutant, Lys558 substituted by alanine (protein)
chain: B1 chain with A554K, A555L, A556L, K558A
B6: L562A: mouse Nurr1 I-box mutant, Leu562 substituted by alanine (protein)
chain: B1 chain with A554K, A555L, A556L, L562A
B7: E561A: mouse Nurr1 I-box mutant, Glu561 substituted by alanine (protein)
chain: B1 chain with A554K, A555L, A556L, E561A
B8: betaRE probe (hRARbeta2 promoter RARE) (dsDNA)
DNA 1: AGCTTAAGGGGTTCACCGAAAGTTCACTCGCAT
DNA 2: ATGCGAGTGAACTTTCGGTGAACCCCTTAAGCT
B9: Gal4 DNA-binding domain fused to Nurr1 ligand-binding domain (amino acids 353-598) KLL(554-556)AAA (other, yeast;mouse, UniProt P04386 1-147, looked up)
chain: MKLLSSIEQACDICRLKKLKCSKEKPKCAKCLKNNWECRYSPKTKRSPLTRAHLTEVESRLERLEQLFLLIFPREDLDMILKMDSLQDIKALLTGLFVQDNVNKDAVTDRLASVETDMPLTLRQHRISATSSSEESSNKGQRQLTVSQDPSPPSPPVSLISALVRAHVDSNPAMTSLDYSRFQANPDYQMSGDDTQHIQQFYDLLTGSMEIIRGWAEKIPGFADLPKADQDLLFESAFLELFVLRLAYRSNPVEGKLIFCNGVVLHRLQCVRGFGEWIDSIVEFSSNLQNMNIDISAFSCIAALAMVTERHGLKEPKRVEELQNKIVNCLKDHVTFNNGGLNRPNYLSAAAGKLPELRTLCTQGLQRIFYLKLEDLVPPPAIIDKLFLDTLPF
notes: range 1-147;range 353-598; Two-hybrid bait, expressed in JEG3 cells; also called pCMX-Gal4-Nurr1-LBD derivative KLL(554-556)AAA
B10: Gal4 DNA-binding domain fused to Nurr1 ligand-binding domain (amino acids 353-598) PEL(560-562)AAA (other, yeast;mouse, UniProt P04386 1-147, looked up)
chain: B9 chain with A349K, A350L, A351L, P355A, E356A, L357A
notes: range 1-147;range 353-598; Two-hybrid bait, expressed in JEG3 cells
B11: Gal4 DNA-binding domain fused to Nurr1 ligand-binding domain (amino acids 353-598) GKL(557-559)AAA (other, yeast;mouse, UniProt P04386 1-147, looked up)
chain: B9 chain with A349K, A350L, A351L, G352A, K353A, L354A
notes: range 1-147;range 353-598; Two-hybrid bait, expressed in JEG3 cells; also called pCMX-Gal4-Nurr1-LBD derivative GKL(557-559)AAA

Experiments:
[1] = system: NGFI-B response element (NBRE) reporter; assay: Monomeric reporter gene activation, NBRE reporter in 293 cells (full-length receptor); format: cell-based, human; settings: three copies of NBRE reporter, effect of the mutation vs wild-type Nurr1
Description: The monomeric activity was examined in 293 cells. The full-length receptor derivatives were studied using a reporter gene regulated by three copies of the NGFI-B binding site (NBRE; FIG. A).
The ability of the mutants to activate reporter gene expression as monomers were studied in human embryonic kidney 293 cells. The cells were maintained in Dulbecco's modified Eagles medium with 10% fetal calf serum. Transfections were carried out as with JEG3 cells except that a reporter regulated by three copies of the NGFI-B (nerve growth factor inducible-B)response element (Wilson et al., 1991) (NBREs) was used. The transcriptional activities of the mutated ligand-binding domains were assessed as fusions to the Gal4 DNA-binding domain and a reporter gene with four copies of the Gal4-binding sites was used. All the transfection experiments were performed in quadruplicate dishes and each experiment has been repeated at least twice with essentially identical results. The results of a representative experiment are shown.

[2] = system: Nurr1-RXR heterodimer; assay: Nurr1-RXR heterodimer-mediated transactivation, βRE luciferase reporter in JEG3 cells; format: cell-based, human; settings: βRE-tk luciferase reporter, RXR ligand SR11237 1 μM, effect of the mutation vs wild-type Nurr1
Description: The wild-type and mutated Nurr1 derivatives were transfected in JEG3 cells. The ability to transactivate was assessed using a luciferase reporter gene driven by three copies of the hRARβ2 promoter RARE (βRE) upstream of a thymidine kinase promoter.
The influence of the I-box mutations on Nurr1 transcriptional activity and on the ability to interact with RXR was examined as described by Perlmann and Jansson 1995, Zetterström et al. 1996, and Castro et al. 1999. Nurr1-RXR heterodimer-mediated transactivation was studied in human chorion carcinoma JEG3 cells. The cells were maintained in minimum essential medium supplemented with 10% fetal calf serum. Transfections were performed in quadruplicates in 24-well plates using the calcium phosphate precipitation method. The cells were plated 24 h prior to the transfection. Each well was transfected with 100 ng of the expression vector for the Nurr1 variants, 100 ng of a reporter plasmid, and 200 ng of βgalactoside plasmid that was used as an internal control for transfection efficiency. The luciferase reporter used was driven by three copies of the retinoid acid response element (RARE) of the human retinoid acid receptorβ2 (hRARβ2) gene promoter (βRE) upstream of the thymidine kinase promoter. 6-8 hours after transfection, the cells received fresh medium supplemented with 10% charcoal-stripped fetal calf,serum and RXR ligand (SR11237;1 μM). The cells were harvested 24 hours late and lysed. The cells extracts were assayed for luciferase and βgalactosidase activity. The ability of the Nurr1 mutants to interact with RXR was examined using the mammalian two-hybrid assay. The ligand-binding domains (amino acids 353-598; LBD) of both wild-type and mutated Nurr1 variants were cloned in frame with the yeast Gal4 DNA-binding domain (amino acids 1-147) in the pCMX-Gal4 expression vector (Perlmann and Jansson 1995). JEG3 cells were cotransfected with pCMX-Gal4-Nurr1-LBD derivatives and pCMX-VP16-RXR containing the herpes simplex VP16 trans-activation domain followed by the complete coding sequence of human RXRα. A reporter gene with four copies of the Gal4-binding sites was used.

[3] = molecular target: Nurr1 wild type/RXR heterodimer (Mus musculus / Homo sapiens?, UniProt Q06219;P19793 Q06219:1-598,P19793:1-462); assay: EMSA; heterodimer; 10 mM Tris pH 8.0, 40 mM KCl, poly(dI-dC), on ice; settings: label: 32P (Klenow fill-in)
Description: (§1) The DNA-binding experiments were carried out as described by Castro et al. 1999. Briefly, Nurr1 and RXR proteins for gel mobility shift assays were produced by coupled in vitro transcription and translation in reticulocyte lysates according to the manufacturer's instructions (TNT Quick Coupled Trans cription/Translation System™; Promega). The proteins were incubated in a binding buffer containing 10 mM Tris (pH 8.0), 40 mM KCI, 0.05% NP-40, 6% glycerol, 1 mM DTT, 0.2mg poly(dI-dC) and protease inhibitors. βRE-probe (agcttaagg[…]ctcgcat; SEQ ID NO:9) was labelled with ³²P by fill-in reaction using Klenow fragment. After addition of the probe, the reactions were incubated on ice for 20 min. Protein-DNA complexes were resolved by electrophoresis on 4% non-denaturating polyacrylamide gel in 0.5×TBE. After electrophoresis, the gels were dried for autoradiography.

[4] = molecular target: Nurr1 P560A + RXR (Mus musculus / Homo sapiens?, UniProt Q06219;P19793 Q06219:1-598,P19793:1-462, Nurr1 P560A); assay: EMSA; no heterodimer on DNA; monomeric binding retained; settings: label: 32P (Klenow fill-in)
Description: as §1

[5] = molecular target: Nurr1 PEL(560-562)AAA + RXR (Mus musculus / Homo sapiens?, UniProt Q06219;P19793 Q06219:1-598,P19793:1-462, Nurr1 P560A,E561A,L562A); assay: as above; settings: label: 32P (Klenow fill-in)
Description: as §1

[6] = molecular target: Nurr1 PEL(560-562)AAA (Mus musculus, UniProt Q06219 Q06219:1-598, P560A,E561A,L562A); assay: EMSA; monomeric DNA binding not influenced; betaRE is the only probe described; settings: label: 32P (Klenow fill-in)
Description: as §1

[7] = molecular target: Nurr1 GKL(557-559)AAA (Mus musculus, UniProt Q06219 Q06219:1-598, G557A,K558A,L559A); assay: as above; settings: label: 32P (Klenow fill-in)
Description: as §1

[8] = molecular target: Nurr1 KLL(554-556)AAA (Mus musculus, UniProt Q06219 Q06219:1-598, K554A,L555A,L556A); assay: as above; settings: label: 32P (Klenow fill-in)
Description: as §1

[9] = molecular target: Nurr1 P560A (Mus musculus, UniProt Q06219 Q06219:1-598, P560A); assay: as above; settings: label: 32P (Klenow fill-in)
Description: as §1

[10] = molecular target: T1, VP16-RXR (herpes simplex VP16 …); assay: mammalian two-hybrid assay, JEG3 cells

Row | Molecule | ability to activate reporter gene expression as monomers (monomeric activity) [1] | ability of Nurr1 to promote RXR-mediated transactivation [2] | other results
1 | B1 | intact | abolished | 
2 | B2 | no effect | abolished | 
3 | B3 | intact | abolished | 
4 | B4 | intact | abolished | 
5 | B5 |  | only a modest effect | 
6 | B6 |  | reduced | 
7 | B7 |  | no effect | 
8 | B8 |  |  | binding result [3]: binds; binding result [4]: no binding; binding result [5]: no binding; binding result [6]: binds; binding result [7]: binds; binding result [8]: binds; binding result [9]: binds
9 | B9 |  |  | binding result [10]: no binding
10 | B10 |  |  | binding result [10]: no binding
11 | B11 |  |  | binding result [10]: no binding
